Measurements taken from patent US20220372112A1 (KEYMED BIOSCIENCES, published 2022).

Key:
human Claudin 18.1 = target: T1, human Claudin 18.1 (human, UniProt P56856 1-261); test: flow cytometry on HEK293-Claudin 18.1 cells, chimeric IgG1
T1 construct: whole, on cells
T1 sequence (looked up): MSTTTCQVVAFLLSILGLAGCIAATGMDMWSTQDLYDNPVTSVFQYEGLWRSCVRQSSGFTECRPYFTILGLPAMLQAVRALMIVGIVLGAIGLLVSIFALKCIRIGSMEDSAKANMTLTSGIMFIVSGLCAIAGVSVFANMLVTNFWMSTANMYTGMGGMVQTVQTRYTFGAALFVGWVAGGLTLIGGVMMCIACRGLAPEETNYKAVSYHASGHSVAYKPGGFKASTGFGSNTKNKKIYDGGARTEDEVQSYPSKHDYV
Experimental: (§1) The HEK293-Claudin 18.1 cells, HEK293-Claudin 18.2 cells and HEK293 cells at logarithmic growth phase were taken, after digesting, added at 5×10⁴ cells/100 μL to the U-shaped 96-well plate, centrifuged at 1100 rpm for 3 minutes, the supernatant was discarded, the cells were gently patted and loosed, 50 μL of antibody diluted according to the series was added to each well (antibody concentration starts from 100 nM, 5 times dilution in 8 series), and incubate at 4° C. for 1 hour. After the incubation, 140 μL 0.5% BSA was added to each well to wash 3 times, the secondary antibody AlexaFluro647 anti-human IgG (Jackson ImmunoResearch, catalog number: 109-606-170) was added with 30 μL/well, and incubated at 4° C. for 40 minutes. After the incubation, 140 μL 0.5% BSA was added to each well to wash 3 times, and finally resuspended each well with 50 μL PBS for flow cytometry (iQue Screener) detection.

human Claudin 18.2 [1] = target: T2, human Claudin 18.2 (human, UniProt P56856-2 1-261); test: flow cytometry (iQue) on HEK293-Claudin 18.2 cells, chimeric IgG1
T2 construct: whole, on cells
T2 sequence (looked up): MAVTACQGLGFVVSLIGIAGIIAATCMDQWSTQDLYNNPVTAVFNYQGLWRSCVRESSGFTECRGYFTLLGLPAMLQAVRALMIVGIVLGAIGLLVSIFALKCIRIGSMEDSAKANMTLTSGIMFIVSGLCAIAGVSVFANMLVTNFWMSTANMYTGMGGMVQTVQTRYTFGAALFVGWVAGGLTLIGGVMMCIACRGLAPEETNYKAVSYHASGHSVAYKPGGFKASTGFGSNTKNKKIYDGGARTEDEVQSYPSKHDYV
Experimental: as §1

human Claudin 18.2 [2] = target: T2, human Claudin 18.2; test: flow cytometry (iQue) on cells, antibody from 100 nM in 5-fold steps; cell line not named in Example 5
Experimental: The cells at logarithmic growth phase were taken, blocked with 3% BSA for 30 minutes, plated at 5×10⁴ cells/100 μL into a U-shaped 96-well plate, centrifuged at 1100 rpm for 3 minutes, the supernatant was discarded, the cells were gently patted and loosed, 50 μL of antibody diluted according to the series was added to each well (antibody concentration starts from 100 nM, 5 times dilution in 8 series), incubated at 4° C. for 1 hour. After the incubation, 140 μL of 0.5% BSA was added to each well to wash 3 times, AF 647 APC anti-human secondary antibody was added with 30 μL/well and incubated at 4° C. for 40 minutes. After the incubation, 140 μL of 0.5% BSA was added to each well to wash 3 times, and finally resuspended each well with 50 μL PBS for iQue (Intellicyt, USA) detection (shown in Table 2).

B1: 18G5 (antibody, V domains shown)
VH: EVQLQQSGREVVRPGTSVKVSCKPSGYAFTNYLIDWVKQRPGQGLEWIGGINPGSGDTVYNEKFKAKATLTADKSSMTTNMQLSSLTSDDSAVYFCARRVRGNSFDSWGQGTLVTVSA
VL: DIVMTQSPSSLTVRAGEKVTMTCKSSQSLFNSGNQRNYLTWYQQKPGQPPKLLLYWATARESGVPDRFTGSGSGTDFTLSISSVQAEDLAVYYCQNVYFYPLTFGAGTKLEIK
notes: also called Clone 18G5
Human Claudin 18.1
  binding result: no binding (tested: 100 nM (highest concentration tested))
Human Claudin 18.2 [1]
  EC50: 3790 pM

B2: 9C9 (antibody, V domains shown)
VH: EVQLKESGPGLVAPSQSLSITCTVSGFSLTNYGVSWIRQPPGKGLEWLGAIWAGGNTNYNSALMSRLSIRKDNSKSQVFLKMNSLQTDDTAMYYCARVGYGNSFANWGQGTLVTVSA
VL: DIVMTQSPSSLTVTAGEKVTLSCKSSQTLLNSGNQKNYLTWYQQKPGQPPKLLIYWASTRESGVPDRFTGSGSGTDFTLTISSVQAEDLAVYYCQNNYFYPLTFGAGTRLEIK
notes: also called Clone 9C9
Human Claudin 18.1
  binding result: no binding (tested: 100 nM (highest concentration tested))
Human Claudin 18.2 [1]
  EC50: 1460 pM

B3: 13A8 (antibody, V domains shown)
VH: EVKLVESGGGLVRPGGSLKVSCAASGITFSRYAISWVRQTPEKRLEWVATISSGDSYTYYLDSVKGRFTISRDDAKNTLYLQMSSLRSEDTAMYYCGRLGYGNAMDYWGQGTSVTVSS
VL: NIMMTQSPSSLTVTAGEKVTMSCKSSQSLLNSGNQKNYLTWYQQKPGQPPKLLIYWASTRESGVPDRFTGSGSGTDFTLTISSVQAEDLAVYYCQNDYSYPLTFGAGTKLEIK
notes: also called Clone 13A8
Human Claudin 18.1
  binding result: no binding (tested: 100 nM (highest concentration tested))
Human Claudin 18.2 [1]
  EC50: 250 pM

B4: 18A9 (antibody, V domains shown)
VH: QVQLQQSGREVVRPGTSVKVSCKPSGYAFTNYLIDWVKQRPGQGLEWIGGINPGSGDTVYNEKFKAKATLTADKSSMTANMQLSSLTSDDSAVYFCARRVRGNSFDSWGQGTLVTVSA
VL: DIVMSQSPSSLTVTAGEKVTMSCKSSQSLLNSGNQKNYLTWYQQKPGQPPKLLIYWASTRESGVPDRFTGSGSGKDFTLTISSVQAEDLALYYCQNNYFYPLTFGAGTKLELK
notes: also called Clone 18A9; 18A9 Chimera
Human Claudin 18.1
  binding result: no binding (tested: 100 nM (highest concentration tested))
Human Claudin 18.2 [1]
  EC50: 310 pM
Human Claudin 18.2 [2]
  EC50: 1030 pM

B5: 14H11 (antibody, V domains shown)
VH: EVQLVESGGGLVKPGGSLKLSCAVSGFTINNYGMSWVRQTPEKRLEWVATIIGGGSSTYYPDSLKGRFTISRDNAKNNLYLQMSSLRSEDTALYYCVRLYFGNSFAYWGQGTLVTVSA
VL: DIVMTQSPSSLTVTAGEKVTVSCKSSQSLSNSGNQRNYLTWYQQKPGQPPKLLIYWASTRESGVPDRFTGSGSGTDFTLTISSVQAEDLAVYYCQNNYFYPLTFGAGTKLELK
notes: also called Clone 14H11
Human Claudin 18.1
  binding result: no binding (tested: 100 nM (highest concentration tested))
Human Claudin 18.2 [1]
  EC50: 220 pM

B6: 25F5 (antibody, V domains shown)
VH: QVQLKQSGAELVKPGASLKLSCKASGYTFTTYGINWVRQRPEQGLEWIGWIFPGDATTMYNEKFKGTATLTADKSSSTAYMQLSGLTSEDSAVYFCARFYYGNSFVDWGQGTLVTVSA
VL: DIVMTQSPSSLTVTAGEKVTMSCKSSQSLLNSGNQKNYLTWYQQKPGQPPKLLIYWASTRESGVPDRFTGSGSGTDFTLTISSVQAEDLAVYYCQNAYYYPLTFGAGTKLEIK
notes: also called Clone 25F5
Human Claudin 18.1
  binding result: no binding (tested: 100 nM (highest concentration tested))
Human Claudin 18.2 [1]
  EC50: 2140 pM

B7: 19B2 (antibody, V domains shown)
VH: QVQLQQSGAELVKPGTSVKLSCKASGYSFTTYGLNWVRQRPKQGLEWIGWIFPGDGNVNYNEKFQGQATLTTDKSSSTAYMQLSRLTSEDSAVYFCARFYYGNSLNYWGQGTLVTVSA
VL: DIVMTQSPSSLTVTAGEKVTMSCKSSQSLLNSGNLRNYLTWYQQKPGRPPKLLIYWASTRESGVPDRFTGSGSGTDFTLTISSVQAEDLAVYYCQNNYFYPLTFGAGTKLEIK
notes: also called Clone 19B2
Human Claudin 18.1
  binding result: no binding (tested: 100 nM (highest concentration tested))
Human Claudin 18.2 [1]
  EC50: 200 pM

B8: 15F9 (antibody, V domains shown)
VH: EIQLVQSGPELKKPGETVKISCKASGYTFTNYGINWVKQAPGKGLKWMGWINPNTGETTYAEEFKGRFALSWKTSASTAYLQINNLKNEDTATYFCARLYYGNRFDYWGQGTTLTVSS
VL: DIVMTQSPSSLTVTAGEKVTMSCKSSQSLLNSGNQRNYLTWYQQKPGQPPKLLIYWASTRESGVPDRFTGSGSGTDFTLTISSVQAEDLAVYYCQNAYYYPLTFGAGTKLEIK
notes: also called Clone 15F9; 15F9 Chimera
Human Claudin 18.1
  binding result: no binding (tested: 100 nM (highest concentration tested))
Human Claudin 18.2 [1]
  EC50: 170 pM
Human Claudin 18.2 [2]
  EC50: 3320 pM

B9: 15A7 (antibody, V domains shown)
VH: QVQLQQSGAELVKPGYSVKLSCKASGYTFTNFGINWVRQRPEKGLEWIGWIFPGDGTTKYNENFKGKATLTTDKSSSTAYMQLSRLTSEDSAVYFCARFYYGNSFVNWGQGTLVTVSA
VL: DIVMTQSPSSLTVTAGEKVTLSCKSSQTLLNSGNQKNYLTWYQQKPGQPPKLLIHWASTRESGVPDRFTGSGSGTDFTLTISSVQAEDLAVYYCQNNYFYPLTFGAGTKLEIK
notes: also called Clone 15A7
Human Claudin 18.1
  binding result: no binding (tested: 100 nM (highest concentration tested))
Human Claudin 18.2 [1]
  EC50: 590 pM

B10: 15D11 (antibody, V domains shown)
VH: QVQLQQSGPGLVAPSQSLSITCTVSGFSLTNYGVSWIRQPPGKGLEWLGAIWAGGNTNYNSALMSRLSIRKDNSKSQVFLKMNSLQTDDTAMYYCARVGYGNSFANWGQGTLVTVSA
VL: DIVMTQSPSSLTVTAGEKVTMSCKSSQSLLNSGNLRNYLTWYQQKPGRPPKLLIYWASTRESGVPDRFTGSGSGTDFTLTISSVQAEDLAVYYCQNNYFYPLTFGAGTKLELK
notes: also called Clone 15D11
Human Claudin 18.1
  binding result: no binding (tested: 100 nM (highest concentration tested))
Human Claudin 18.2 [1]
  EC50: 210 pM

B11: 25A5 (antibody, V domains shown)
VH: EVQLKESGPGLVAPSQSLSITCTVSGFSLTNYGVSWIRQPPGKGLEWLGAIWAGGNTNYNSALMSRLSIRKDNSKSQVFLKMNSLQTDDTAMYYCARVGYGNSFANWGQGTLVTVSA
VL: DIVMTQSPSSLTVTAGEKVTMSCKSSQSLLNSGNQRNYLTWYQQKPGQPPKLLIYWASTRESGIPDRFIGSGSGTDFTLTISSVQAEDVSVYYCQNNYIFPLTFGAGTKLEIK
notes: also called Clone 25A5
Human Claudin 18.1
  binding result: no binding (tested: 100 nM (highest concentration tested))
Human Claudin 18.2 [1]
  EC50: 190 pM

B12: 9A8 (antibody, V domains shown)
VH: QVQLQQSGREVVRPGTSVKVSCKPSGYAFTNYLIDWVKQRPGQGLEWIGGINPGSGDTVYNEKFKAKATLTADKSSMTANMQLSSLTSDDSAVYFCARRVRGNSFDSWGQGTLVTVSA
VL: DIQMTQSPSSLTVTAGEKVTMSCKSSQSLLNSGNQRNYLTWYQQKTGQPPKLLIYWASTRESGVPDRFTGSGSGTDFTLTINSVQAEDLAVYYCQNNYYYPLTFGAGTKLEIK
notes: also called Clone 9A8
Human Claudin 18.1
  binding result: no binding (tested: 100 nM (highest concentration tested))
Human Claudin 18.2 [1]
  EC50: 210 pM

B13: 9D12 (antibody, V domains shown)
VH: EVQLQQSGREVVRPGTSVKVSCKPSGYAFTNYLIDWVKQRPGQGLEWIGGINPGSGDTVYNERFKDKATLTADKSSSSANMQLSSLTSDDSAVYFCARRVRGNSFDSWGQGTLVTVSA
VL: DIVMTQSPSSLTVTAGQKVTMSCKSSQSLLNSGNQKNYLTWYQQKPGQPPKLLIYWASTRESGVPDRFTGSGSGKDFTLTISSVQAEDLAVFYCQNNYFYPLTFGAGTKLELK
notes: also called Clone 9D12
Human Claudin 18.1
  binding result: no binding (tested: 100 nM (highest concentration tested))
Human Claudin 18.2 [1]
  EC50: 6780 pM

B14: 8C11 (antibody, V domains shown)
VH: QVQLQQSGAELVKPGASVKLSCKASGYTFTTFGINWVRQRPEQGLEWIGWIFPGDGSIKYNEKFKGKATLTTDKSSSTAYMQISSLTSEDSAVYFCARFYYGNSFVSWGQGTLVTVSA
VL: DIVMTQSPSSLAVTAGEKVTMTCKSSQSLLNSGNQKNYLTWYQQRPGQPPKLLLYWASTRESGVPDRFTGSGSGTDFALTITSVQAEDLAVYYCQNDYTYPFTFGSGTKLEIK
notes: also called Clone 8C11
Human Claudin 18.1
  binding result: no binding (tested: 100 nM (highest concentration tested))
Human Claudin 18.2 [1]
  EC50: 230 pM
